Laboratory results reported in patent US20220306695A1, “COMPSTATIN ANALOGUES AND THEIR MEDICAL USES” (priority 2019, published 2022).
Starred links: 1 amine or outer side, 2 acyl side, 3 side chain; linkers in the order of their positions; H or OH if unused. Positions of bridges follow the written chain, without caps; N, C: chain ends. Non-standard residues stand in square brackets, D forms with d. Groups on a side chain read outwards from the residue. *: point of attachment. Trp(1-Me) = Cn1cc(C[C@H](N)C(=O)O)c2ccccc21; C18 diacid = O=C(O)CCCCCCCCCCCCCCCCC(=O)*; γGlu = O=C(O)[C@H](CCC(=O)[*:2])N[*:1]; hCys = N[C@@H](CCS)C(=O)O; AEEA = NCCOCCOCC(=O)O; Sar = CNCC(=O)O

Key:
Human C3 [1] = target: T1, Human C3 (human, UniProt P01024 23-1663); assay: SPR, C3 immobilised
T1 construct: In SPR the bought human C3 was immobilised on CM5 chips by amine coupling; In the haemolysis assay the C3 is that of diluted human serum; also called complement C3
Procedure: Surface plasmon resonance (SPR) was used to characterize peptides with respect to their binding affinity (Kd) for C3. Human C3 (Complement tech cat #A1 13c) was immobilised on individual flow cells of CM5 sensor chips (GE Healthcare) using standard amine coupling to a density of approximately 3000 resonance units (RU) in a buffer consisting of 10 mM phosphate pH 7.4, 150 mM NaCl, 0.05% Tween20.
For interaction experiments a multi-cycle experiment approach was used and performed using either a Biacore™ T200 or Biacore™ X100 instrument (GE Healthcare) at 25° C. Peptides were injected in increasing concentration series (5-8 different concentrations) for 60-120 s at a flow rate of 30 μL/min in a buffer consisting of 10 mM Tris buffer at pH 7.4, with 150 mM NaCl and 0.05% Tween20. This was followed by a dissociation period for up to 10 min. The C3 surface was regenerated between runs by a 45 s injection of 3 M MgCl₂.
Sensorgrams were double-referenced (reference surface, blanks) prior to analysis of the kinetic profiles by globally fitting data to a 1:1 Langmuir binding model to obtain association and dissociation rates for calculation of the equilibrium dissociation constant Kd. Each peptide was tested at in at least 2 independent experiments.

Human C3 [2] = target: T1, Human C3; assay: cell-based or functional assay

T1 sequence (P01024 23-1663 limits assumed): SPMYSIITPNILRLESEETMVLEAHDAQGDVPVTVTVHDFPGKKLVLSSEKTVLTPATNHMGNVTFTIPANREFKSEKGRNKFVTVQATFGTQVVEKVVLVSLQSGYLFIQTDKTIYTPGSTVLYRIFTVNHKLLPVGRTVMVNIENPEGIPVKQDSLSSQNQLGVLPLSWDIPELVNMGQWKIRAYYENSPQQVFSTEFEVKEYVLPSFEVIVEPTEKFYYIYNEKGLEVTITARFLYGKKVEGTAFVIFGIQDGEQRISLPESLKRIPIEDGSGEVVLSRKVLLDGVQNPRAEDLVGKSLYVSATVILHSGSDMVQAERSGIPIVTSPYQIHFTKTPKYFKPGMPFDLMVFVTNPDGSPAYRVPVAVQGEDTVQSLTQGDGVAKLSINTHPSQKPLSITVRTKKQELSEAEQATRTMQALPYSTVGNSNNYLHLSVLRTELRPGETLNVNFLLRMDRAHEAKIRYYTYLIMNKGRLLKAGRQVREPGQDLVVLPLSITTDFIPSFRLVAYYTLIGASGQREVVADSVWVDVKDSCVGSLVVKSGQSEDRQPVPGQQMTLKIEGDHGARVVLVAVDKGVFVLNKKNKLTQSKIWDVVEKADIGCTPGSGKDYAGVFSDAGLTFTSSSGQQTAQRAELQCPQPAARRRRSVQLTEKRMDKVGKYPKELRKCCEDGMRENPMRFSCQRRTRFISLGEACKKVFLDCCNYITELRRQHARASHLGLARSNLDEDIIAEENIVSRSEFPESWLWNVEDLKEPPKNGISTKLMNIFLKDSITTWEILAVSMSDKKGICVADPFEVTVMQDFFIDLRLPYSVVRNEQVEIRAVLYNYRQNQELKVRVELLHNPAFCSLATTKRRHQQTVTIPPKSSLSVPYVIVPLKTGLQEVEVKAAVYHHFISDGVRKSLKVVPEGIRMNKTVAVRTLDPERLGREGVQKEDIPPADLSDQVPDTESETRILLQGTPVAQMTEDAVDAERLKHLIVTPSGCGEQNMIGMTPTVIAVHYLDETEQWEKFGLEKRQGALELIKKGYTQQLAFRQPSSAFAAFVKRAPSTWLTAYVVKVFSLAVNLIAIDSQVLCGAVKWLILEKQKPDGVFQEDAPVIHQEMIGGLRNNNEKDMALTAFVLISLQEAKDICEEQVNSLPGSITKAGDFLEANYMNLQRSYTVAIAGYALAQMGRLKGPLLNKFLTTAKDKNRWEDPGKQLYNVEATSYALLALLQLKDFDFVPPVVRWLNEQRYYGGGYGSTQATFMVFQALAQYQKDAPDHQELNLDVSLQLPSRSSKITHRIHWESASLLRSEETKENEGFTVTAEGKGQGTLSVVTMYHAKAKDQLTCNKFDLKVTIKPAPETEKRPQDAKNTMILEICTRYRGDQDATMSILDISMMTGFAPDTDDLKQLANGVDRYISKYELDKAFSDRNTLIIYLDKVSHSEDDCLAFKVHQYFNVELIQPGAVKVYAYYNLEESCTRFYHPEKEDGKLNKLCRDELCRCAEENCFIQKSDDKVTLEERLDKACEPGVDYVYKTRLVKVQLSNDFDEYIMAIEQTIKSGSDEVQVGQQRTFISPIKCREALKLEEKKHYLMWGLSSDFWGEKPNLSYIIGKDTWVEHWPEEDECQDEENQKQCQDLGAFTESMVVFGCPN

Kd (Human C3 [1]) [nM] | Binder | IC50[nM], inhibition of hemolysis (Human C3 [2]) [nM]
3.5 | Ac-SEFAI[Trp(1-Me)]QDWGEHR[hCys]TEGEGGGK([γGlu-Gly-γGlu-C18 diacid])-NH2 (thioether 4-14; SMILES CC[C@H](C)[C@@H]1NC(=O)[C@@H](NC(=O)[C@H](Cc2ccccc2)NC(=O)[C@H](CCC(=O)O)NC(=O)[C@H](CO)NC(C)=O)CSCC[C@@H](C(=O)N[C@H](C(=O)N[C@@H](CCC(=O)O)C(=O)NCC(=O)N[C@@H](CCC(=O)O)C(=O)NCC(=O)NCC(=O)NCC(=O)N[C@@H](CCCCNC(=O)CC[C@H](NC(=O)CNC(=O)CC[C@H](NC(=O)CCCCCCCCCCCCCCCCC(=O)O)C(=O)O)C(=O)O)C(N)=O)[C@@H](C)O)NC(=O)[C@H](CCCNC(=N)N)NC(=O)[C@H](Cc2c[nH]cn2)NC(=O)[C@H](CCC(=O)O)NC(=O)CNC(=O)[C@H](Cc2c[nH]c3ccccc23)NC(=O)[C@H](CC(=O)O)NC(=O)[C@H](CCC(N)=O)NC(=O)[C@H](Cc2cn(C)c3ccccc23)NC1=O) [Compound 157] | < 100
6.4 | Ac-SEF[hCys]I[Trp(1-Me)]QDW[Sar]EHRA[Sar]E[AEEA][AEEA]K([γGlu-Gly-γGlu-C18 diacid])-NH2 (thioether 4-14) [Compound 164] | < 100
6.6 | Ac-SEFCI[Trp(1-Me)]QDWGEHRC[Sar]EGESESK([γGlu-C18 diacid])-NH2 (disulfide 4-14; SMILES CC[C@H](C)[C@@H]1NC(=O)[C@@H](NC(=O)[C@H](Cc2ccccc2)NC(=O)[C@H](CCC(=O)O)NC(=O)[C@H](CO)NC(C)=O)CSSC[C@@H](C(=O)N(C)CC(=O)N[C@@H](CCC(=O)O)C(=O)NCC(=O)N[C@@H](CCC(=O)O)C(=O)N[C@@H](CO)C(=O)N[C@@H](CCC(=O)O)C(=O)N[C@@H](CO)C(=O)N[C@@H](CCCCNC(=O)CC[C@H](NC(=O)CCCCCCCCCCCCCCCCC(=O)O)C(=O)O)C(N)=O)NC(=O)[C@H](CCCNC(=N)N)NC(=O)[C@H](Cc2c[nH]cn2)NC(=O)[C@H](CCC(=O)O)NC(=O)CNC(=O)[C@H](Cc2c[nH]c3ccccc23)NC(=O)[C@H](CC(=O)O)NC(=O)[C@H](CCC(N)=O)NC(=O)[C@H](Cc2cn(C)c3ccccc23)NC1=O) [Compound 141] | < 100
4.8 | Ac-SEFCI[Trp(1-Me)]QDWGEHRCTEGE[AEEA]ESK([γGlu-C18 diacid])-NH2 (disulfide 4-14) [Compound 142] | < 100
0.56 | SEFAIWQDWGEHRCGEGEXESK (not fully specified; N-acetyl; C-terminal amide; delta-cystathionine (Ctt2) thioether bridge A4-hCys14 (hCys written C); W6 is 1-Me-Trp; G10 is Sar; G15 is Sar; X19 is Peg3; K22 side chain bears [17-carboxy-heptadecanoyl][γGlu]G[γGlu]) [Compound 150] | < 100

The next lines start with the binder.

Binder | Kd (Human C3 [1]) [nM] | IC50[nM], inhibition of hemolysis (Human C3 [2]) [nM]
Ac-SEFCI[Trp(1-Me)]QDWGEHRCTEGEGGGK([γGlu-Gly-γGlu-C18 diacid])-NH2 (disulfide 4-14; SMILES CC[C@H](C)[C@@H]1NC(=O)[C@@H](NC(=O)[C@H](Cc2ccccc2)NC(=O)[C@H](CCC(=O)O)NC(=O)[C@H](CO)NC(C)=O)CSSC[C@@H](C(=O)N[C@H](C(=O)N[C@@H](CCC(=O)O)C(=O)NCC(=O)N[C@@H](CCC(=O)O)C(=O)NCC(=O)NCC(=O)NCC(=O)N[C@@H](CCCCNC(=O)CC[C@H](NC(=O)CNC(=O)CC[C@H](NC(=O)CCCCCCCCCCCCCCCCC(=O)O)C(=O)O)C(=O)O)C(N)=O)[C@@H](C)O)NC(=O)[C@H](CCCNC(=N)N)NC(=O)[C@H](Cc2c[nH]cn2)NC(=O)[C@H](CCC(=O)O)NC(=O)CNC(=O)[C@H](Cc2c[nH]c3ccccc23)NC(=O)[C@H](CC(=O)O)NC(=O)[C@H](CCC(N)=O)NC(=O)[C@H](Cc2cn(C)c3ccccc23)NC1=O) [Compound 130] | 4.4 | < 100
Ac-FCIWQDWGEHRCT-NH2 (disulfide 2-12; SMILES CC[C@H](C)[C@@H]1NC(=O)[C@@H](NC(=O)[C@H](Cc2ccccc2)NC(C)=O)CSSC[C@@H](C(=O)N[C@H](C(N)=O)[C@@H](C)O)NC(=O)[C@H](CCCNC(=N)N)NC(=O)[C@H](Cc2c[nH]cn2)NC(=O)[C@H](CCC(=O)O)NC(=O)CNC(=O)[C@H](Cc2c[nH]c3ccccc23)NC(=O)[C@H](CC(=O)O)NC(=O)[C@H](CCC(N)=O)NC(=O)[C@H](Cc2c[nH]c3ccccc23)NC1=O) [Compound 23] | 2.8 | < 100
Ac-EGSAICIWQDWGEHRCT-NH2 (disulfide 6-16; SMILES CC[C@H](C)[C@H](NC(=O)[C@H](C)NC(=O)[C@H](CO)NC(=O)CNC(=O)[C@H](CCC(=O)O)NC(C)=O)C(=O)N[C@H]1CSSC[C@@H](C(=O)N[C@H](C(N)=O)[C@@H](C)O)NC(=O)[C@H](CCCNC(=N)N)NC(=O)[C@H](Cc2c[nH]cn2)NC(=O)[C@H](CCC(=O)O)NC(=O)CNC(=O)[C@H](Cc2c[nH]c3ccccc23)NC(=O)[C@H](CC(=O)O)NC(=O)[C@H](CCC(N)=O)NC(=O)[C@H](Cc2c[nH]c3ccccc23)NC(=O)[C@H]([C@@H](C)CC)NC1=O) [Compound 29] | 21 | < 100
SEFAIWQDWGEHRCGEXXK (not fully specified; N-acetyl; C-terminal amide; delta-cystathionine (Ctt2) thioether bridge A4-hCys14 (hCys written C); W6 is 1-Me-Trp; G10 is Sar; G15 is Sar; X17 and X18 are Peg3; K19 side chain bears [17-carboxy-heptadecanoyl][γGlu]G[γGlu]) [Compound 147] | 0.71 | < 100
Ac-FCI[Trp(1-Me)]QDWGEHRCTGAES-NH2 (disulfide 2-12; SMILES CC[C@H](C)[C@@H]1NC(=O)[C@@H](NC(=O)[C@H](Cc2ccccc2)NC(C)=O)CSSC[C@@H](C(=O)N[C@H](C(=O)NCC(=O)N[C@@H](C)C(=O)N[C@@H](CCC(=O)O)C(=O)N[C@@H](CO)C(N)=O)[C@@H](C)O)NC(=O)[C@H](CCCNC(=N)N)NC(=O)[C@H](Cc2c[nH]cn2)NC(=O)[C@H](CCC(=O)O)NC(=O)CNC(=O)[C@H](Cc2c[nH]c3ccccc23)NC(=O)[C@H](CC(=O)O)NC(=O)[C@H](CCC(N)=O)NC(=O)[C@H](Cc2cn(C)c3ccccc23)NC1=O) [Compound 61] | 0.33 | < 100
Ac-SEFCI[Trp(1-Me)]QDWGEHRC[Sar]EGE[AEEA]ESK([γGlu-γGlu-C18 diacid])-NH2 (disulfide 4-14) [Compound 140] | 7.6 | < 100
Ac-SEF[hCys]I[Trp(1-Me)]QDWGEHRATEGE[AEEA]ESK([γGlu-C18 diacid])-NH2 (thioether 4-14; SMILES CC[C@H](C)[C@@H]1NC(=O)[C@@H](NC(=O)[C@H](Cc2ccccc2)NC(=O)[C@H](CCC(=O)O)NC(=O)[C@H](CO)NC(C)=O)CCSC[C@@H](C(=O)N[C@H](C(=O)N[C@@H](CCC(=O)O)C(=O)NCC(=O)N[C@@H](CCC(=O)O)C(=O)NCCOCCOCC(=O)N[C@@H](CCC(=O)O)C(=O)N[C@@H](CO)C(=O)N[C@@H](CCCCNC(=O)CC[C@H](NC(=O)CCCCCCCCCCCCCCCCC(=O)O)C(=O)O)C(N)=O)[C@@H](C)O)NC(=O)[C@H](CCCNC(=N)N)NC(=O)[C@H](Cc2c[nH]cn2)NC(=O)[C@H](CCC(=O)O)NC(=O)CNC(=O)[C@H](Cc2c[nH]c3ccccc23)NC(=O)[C@H](CC(=O)O)NC(=O)[C@H](CCC(N)=O)NC(=O)[C@H](Cc2cn(C)c3ccccc23)NC1=O) [Compound 165] | 20.7 | < 250
Ac-SEFCI[Trp(1-Me)]QDWGEHRCTGAES-NH2 (disulfide 4-14; SMILES CC[C@H](C)[C@@H]1NC(=O)[C@@H](NC(=O)[C@H](Cc2ccccc2)NC(=O)[C@H](CCC(=O)O)NC(=O)[C@H](CO)NC(C)=O)CSSC[C@@H](C(=O)N[C@H](C(=O)NCC(=O)N[C@@H](C)C(=O)N[C@@H](CCC(=O)O)C(=O)N[C@@H](CO)C(N)=O)[C@@H](C)O)NC(=O)[C@H](CCCNC(=N)N)NC(=O)[C@H](Cc2c[nH]cn2)NC(=O)[C@H](CCC(=O)O)NC(=O)CNC(=O)[C@H](Cc2c[nH]c3ccccc23)NC(=O)[C@H](CC(=O)O)NC(=O)[C@H](CCC(N)=O)NC(=O)[C@H](Cc2cn(C)c3ccccc23)NC1=O) [Compound 67] | 0.68 | < 100
Ac-SEFCI[Trp(1-Me)]QDWGEHRC[Sar]EGESESK([γGlu-Gly-γGlu-C18 diacid])-NH2 (disulfide 4-14; SMILES CC[C@H](C)[C@@H]1NC(=O)[C@@H](NC(=O)[C@H](Cc2ccccc2)NC(=O)[C@H](CCC(=O)O)NC(=O)[C@H](CO)NC(C)=O)CSSC[C@@H](C(=O)N(C)CC(=O)N[C@@H](CCC(=O)O)C(=O)NCC(=O)N[C@@H](CCC(=O)O)C(=O)N[C@@H](CO)C(=O)N[C@@H](CCC(=O)O)C(=O)N[C@@H](CO)C(=O)N[C@@H](CCCCNC(=O)CC[C@H](NC(=O)CNC(=O)CC[C@H](NC(=O)CCCCCCCCCCCCCCCCC(=O)O)C(=O)O)C(=O)O)C(N)=O)NC(=O)[C@H](CCCNC(=N)N)NC(=O)[C@H](Cc2c[nH]cn2)NC(=O)[C@H](CCC(=O)O)NC(=O)CNC(=O)[C@H](Cc2c[nH]c3ccccc23)NC(=O)[C@H](CC(=O)O)NC(=O)[C@H](CCC(N)=O)NC(=O)[C@H](Cc2cn(C)c3ccccc23)NC1=O) [Compound 139] | 7.4 | < 100
